Results reported in US20210388087A1 (Chugai, published 2021).

Target: T1, CD3 epsilon homodimer protein (UniProt P07766 23-126)
T1 construct: immobilized on Sensor chip CM4 by amine coupling; also called CD3 (CD3 epsilon)
Test: SPR (Biacore T200), CD3 epsilon homodimer on CM4 chip, one-arm antibody as analyte, 25 C;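 note: homodimer attached to the sensor surface via amine coupling, HBS-EP+ used as running buffer during binding runs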

T1 sequence (P07766 23-126): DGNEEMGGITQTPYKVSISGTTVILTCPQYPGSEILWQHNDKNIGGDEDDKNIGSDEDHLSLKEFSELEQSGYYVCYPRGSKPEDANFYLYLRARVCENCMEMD

Binder | ratio of amounts bound (altered form / CE115HA000)
CE115HA000 Q105E one-arm antibody (antibody, human IgG1, kappa, L234A L235A, N297A, name in Kabat numbering) heavy: QVQLVESGGGVVQPGRSLRLSCAASGFTFSNAWMHWVRQAPGKGLEWVAQIKAKSNNYATYYAESVKGRFTISRDDSKNSLYLQMNSLKTEDTAVYYCRYVHYGAYYGVDAWGEGTTVTVSSASTKGPSVFPLAPSSKSTSGGTAALGCLVKDYFPEPVTVSWNSGALTSGVHTFPAVLQSSGLYSLSSVVTVPSSSLGTQTYICNVNHKPSNTKVDKKVEPKSCDKTHTCPPCPAPEAAGGPSVFLFPPKPKDTLMISRTPEVTCVVVDVSHEDPEVKFNWYVDGVEVHNAKTKPREEQYASTYRVVSVLTVLHQDWLNGKEYKCKVSNKALPAPIEKTISKAKGQPREPQVYTLPPSRCELTKNQVSLSCAVKGFYPSDIAVEWESNGQPENNYKTTPPVLDSDGSFFLVSKLTVDKSRWQQGNVFSCSVMHEALHNHYTQKSLSLSPDYKDDDDK EPKSSDKTHTCPPCPAPELLGGPSVFLFPPKPKDTLMISRTPEVTCVVVDVSHEDPEVKFNWYVDGVEVHNAKTKPREEQYNSTYRVVSVLTVLHQDWLNGKEYKCKVSNKALPAPIEKTISKAKGQPREPQVCTLPPSRDELTKNQVSLWCLVKGFYPSDIAVEWESNGQPENNYKTTPPVLDSDGSFFLYSKLTVDKSRWQQGNVFSCSVMHEALHNRYTQKSLSLSP light: DIVMTQSPLSLPVTPGEPASISCRSSQSLVHSNRNTYLHWYQQKPGQAPRLLIYKVSNRFSGVPDRFSGSGSGTDFTLKISRVEAEDVGVYYCGQGTQVPYTFGQGTKLEIKRTVAAPSVFIFPPSDEQLKSGTASVVCLLNNFYPREAKVQWKVDNALQSGNSQESVTEQDSKDSTYSLSSTLTLSKADYEKHKVYACEVTHQGLSSPVTKSFNRGEC | 0.94
CE115HA000 S30G one-arm antibody (antibody, human IgG1, kappa, L234A L235A, N297A, name in Kabat numbering) heavy: QVQLVESGGGVVQPGRSLRLSCAASGFTFGNAWMHWVRQAPGKGLEWVAQIKAKSNNYATYYAESVKGRFTISRDDSKNSLYLQMNSLKTEDTAVYYCRYVHYGAYYGVDAWGQGTTVTVSSASTKGPSVFPLAPSSKSTSGGTAALGCLVKDYFPEPVTVSWNSGALTSGVHTFPAVLQSSGLYSLSSVVTVPSSSLGTQTYICNVNHKPSNTKVDKKVEPKSCDKTHTCPPCPAPEAAGGPSVFLFPPKPKDTLMISRTPEVTCVVVDVSHEDPEVKFNWYVDGVEVHNAKTKPREEQYASTYRVVSVLTVLHQDWLNGKEYKCKVSNKALPAPIEKTISKAKGQPREPQVYTLPPSRCELTKNQVSLSCAVKGFYPSDIAVEWESNGQPENNYKTTPPVLDSDGSFFLVSKLTVDKSRWQQGNVFSCSVMHEALHNHYTQKSLSLSPDYKDDDDK EPKSSDKTHTCPPCPAPELLGGPSVFLFPPKPKDTLMISRTPEVTCVVVDVSHEDPEVKFNWYVDGVEVHNAKTKPREEQYNSTYRVVSVLTVLHQDWLNGKEYKCKVSNKALPAPIEKTISKAKGQPREPQVCTLPPSRDELTKNQVSLWCLVKGFYPSDIAVEWESNGQPENNYKTTPPVLDSDGSFFLYSKLTVDKSRWQQGNVFSCSVMHEALHNRYTQKSLSLSP light: DIVMTQSPLSLPVTPGEPASISCRSSQSLVHSNRNTYLHWYQQKPGQAPRLLIYKVSNRFSGVPDRFSGSGSGTDFTLKISRVEAEDVGVYYCGQGTQVPYTFGQGTKLEIKRTVAAPSVFIFPPSDEQLKSGTASVVCLLNNFYPREAKVQWKVDNALQSGNSQESVTEQDSKDSTYSLSSTLTLSKADYEKHKVYACEVTHQGLSSPVTKSFNRGEC | 1.01
CE115HA000 R16E one-arm antibody (antibody, human IgG1, kappa, L234A L235A, N297A, name in Kabat numbering) heavy: QVQLVESGGGVVQPGESLRLSCAASGFTFSNAWMHWVRQAPGKGLEWVAQIKAKSNNYATYYAESVKGRFTISRDDSKNSLYLQMNSLKTEDTAVYYCRYVHYGAYYGVDAWGQGTTVTVSSASTKGPSVFPLAPSSKSTSGGTAALGCLVKDYFPEPVTVSWNSGALTSGVHTFPAVLQSSGLYSLSSVVTVPSSSLGTQTYICNVNHKPSNTKVDKKVEPKSCDKTHTCPPCPAPEAAGGPSVFLFPPKPKDTLMISRTPEVTCVVVDVSHEDPEVKFNWYVDGVEVHNAKTKPREEQYASTYRVVSVLTVLHQDWLNGKEYKCKVSNKALPAPIEKTISKAKGQPREPQVYTLPPSRCELTKNQVSLSCAVKGFYPSDIAVEWESNGQPENNYKTTPPVLDSDGSFFLVSKLTVDKSRWQQGNVFSCSVMHEALHNHYTQKSLSLSPDYKDDDDK EPKSSDKTHTCPPCPAPELLGGPSVFLFPPKPKDTLMISRTPEVTCVVVDVSHEDPEVKFNWYVDGVEVHNAKTKPREEQYNSTYRVVSVLTVLHQDWLNGKEYKCKVSNKALPAPIEKTISKAKGQPREPQVCTLPPSRDELTKNQVSLWCLVKGFYPSDIAVEWESNGQPENNYKTTPPVLDSDGSFFLYSKLTVDKSRWQQGNVFSCSVMHEALHNRYTQKSLSLSP light: DIVMTQSPLSLPVTPGEPASISCRSSQSLVHSNRNTYLHWYQQKPGQAPRLLIYKVSNRFSGVPDRFSGSGSGTDFTLKISRVEAEDVGVYYCGQGTQVPYTFGQGTKLEIKRTVAAPSVFIFPPSDEQLKSGTASVVCLLNNFYPREAKVQWKVDNALQSGNSQESVTEQDSKDSTYSLSSTLTLSKADYEKHKVYACEVTHQGLSSPVTKSFNRGEC | 0.88
CE115HA000 R19T one-arm antibody (antibody, human IgG1, kappa, L234A L235A, N297A, name in Kabat numbering) heavy: QVQLVESGGGVVQPGRSLTLSCAASGFTFSNAWMHWVRQAPGKGLEWVAQIKAKSNNYATYYAESVKGRFTISRDDSKNSLYLQMNSLKTEDTAVYYCRYVHYGAYYGVDAWGQGTTVTVSSASTKGPSVFPLAPSSKSTSGGTAALGCLVKDYFPEPVTVSWNSGALTSGVHTFPAVLQSSGLYSLSSVVTVPSSSLGTQTYICNVNHKPSNTKVDKKVEPKSCDKTHTCPPCPAPEAAGGPSVFLFPPKPKDTLMISRTPEVTCVVVDVSHEDPEVKFNWYVDGVEVHNAKTKPREEQYASTYRVVSVLTVLHQDWLNGKEYKCKVSNKALPAPIEKTISKAKGQPREPQVYTLPPSRCELTKNQVSLSCAVKGFYPSDIAVEWESNGQPENNYKTTPPVLDSDGSFFLVSKLTVDKSRWQQGNVFSCSVMHEALHNHYTQKSLSLSPDYKDDDDK EPKSSDKTHTCPPCPAPELLGGPSVFLFPPKPKDTLMISRTPEVTCVVVDVSHEDPEVKFNWYVDGVEVHNAKTKPREEQYNSTYRVVSVLTVLHQDWLNGKEYKCKVSNKALPAPIEKTISKAKGQPREPQVCTLPPSRDELTKNQVSLWCLVKGFYPSDIAVEWESNGQPENNYKTTPPVLDSDGSFFLYSKLTVDKSRWQQGNVFSCSVMHEALHNRYTQKSLSLSP light: DIVMTQSPLSLPVTPGEPASISCRSSQSLVHSNRNTYLHWYQQKPGQAPRLLIYKVSNRFSGVPDRFSGSGSGTDFTLKISRVEAEDVGVYYCGQGTQVPYTFGQGTKLEIKRTVAAPSVFIFPPSDEQLKSGTASVVCLLNNFYPREAKVQWKVDNALQSGNSQESVTEQDSKDSTYSLSSTLTLSKADYEKHKVYACEVTHQGLSSPVTKSFNRGEC | 0.8
CE115HA000 S30D one-arm antibody (antibody, human IgG1, kappa, L234A L235A, N297A, name in Kabat numbering) heavy: QVQLVESGGGVVQPGRSLRLSCAASGFTFDNAWMHWVRQAPGKGLEWVAQIKAKSNNYATYYAESVKGRFTISRDDSKNSLYLQMNSLKTEDTAVYYCRYVHYGAYYGVDAWGQGTTVTVSSASTKGPSVFPLAPSSKSTSGGTAALGCLVKDYFPEPVTVSWNSGALTSGVHTFPAVLQSSGLYSLSSVVTVPSSSLGTQTYICNVNHKPSNTKVDKKVEPKSCDKTHTCPPCPAPEAAGGPSVFLFPPKPKDTLMISRTPEVTCVVVDVSHEDPEVKFNWYVDGVEVHNAKTKPREEQYASTYRVVSVLTVLHQDWLNGKEYKCKVSNKALPAPIEKTISKAKGQPREPQVYTLPPSRCELTKNQVSLSCAVKGFYPSDIAVEWESNGQPENNYKTTPPVLDSDGSFFLVSKLTVDKSRWQQGNVFSCSVMHEALHNHYTQKSLSLSPDYKDDDDK EPKSSDKTHTCPPCPAPELLGGPSVFLFPPKPKDTLMISRTPEVTCVVVDVSHEDPEVKFNWYVDGVEVHNAKTKPREEQYNSTYRVVSVLTVLHQDWLNGKEYKCKVSNKALPAPIEKTISKAKGQPREPQVCTLPPSRDELTKNQVSLWCLVKGFYPSDIAVEWESNGQPENNYKTTPPVLDSDGSFFLYSKLTVDKSRWQQGNVFSCSVMHEALHNRYTQKSLSLSP light: DIVMTQSPLSLPVTPGEPASISCRSSQSLVHSNRNTYLHWYQQKPGQAPRLLIYKVSNRFSGVPDRFSGSGSGTDFTLKISRVEAEDVGVYYCGQGTQVPYTFGQGTKLEIKRTVAAPSVFIFPPSDEQLKSGTASVVCLLNNFYPREAKVQWKVDNALQSGNSQESVTEQDSKDSTYSLSSTLTLSKADYEKHKVYACEVTHQGLSSPVTKSFNRGEC | 0.86
CE115HA000 R16Q one-arm antibody (antibody, human IgG1, kappa, L234A L235A, N297A, name in Kabat numbering) heavy: QVQLVESGGGVVQPGQSLRLSCAASGFTFSNAWMHWVRQAPGKGLEWVAQIKAKSNNYATYYAESVKGRFTISRDDSKNSLYLQMNSLKTEDTAVYYCRYVHYGAYYGVDAWGQGTTVTVSSASTKGPSVFPLAPSSKSTSGGTAALGCLVKDYFPEPVTVSWNSGALTSGVHTFPAVLQSSGLYSLSSVVTVPSSSLGTQTYICNVNHKPSNTKVDKKVEPKSCDKTHTCPPCPAPEAAGGPSVFLFPPKPKDTLMISRTPEVTCVVVDVSHEDPEVKFNWYVDGVEVHNAKTKPREEQYASTYRVVSVLTVLHQDWLNGKEYKCKVSNKALPAPIEKTISKAKGQPREPQVYTLPPSRCELTKNQVSLSCAVKGFYPSDIAVEWESNGQPENNYKTTPPVLDSDGSFFLVSKLTVDKSRWQQGNVFSCSVMHEALHNHYTQKSLSLSPDYKDDDDK EPKSSDKTHTCPPCPAPELLGGPSVFLFPPKPKDTLMISRTPEVTCVVVDVSHEDPEVKFNWYVDGVEVHNAKTKPREEQYNSTYRVVSVLTVLHQDWLNGKEYKCKVSNKALPAPIEKTISKAKGQPREPQVCTLPPSRDELTKNQVSLWCLVKGFYPSDIAVEWESNGQPENNYKTTPPVLDSDGSFFLYSKLTVDKSRWQQGNVFSCSVMHEALHNRYTQKSLSLSP light: DIVMTQSPLSLPVTPGEPASISCRSSQSLVHSNRNTYLHWYQQKPGQAPRLLIYKVSNRFSGVPDRFSGSGSGTDFTLKISRVEAEDVGVYYCGQGTQVPYTFGQGTKLEIKRTVAAPSVFIFPPSDEQLKSGTASVVCLLNNFYPREAKVQWKVDNALQSGNSQESVTEQDSKDSTYSLSSTLTLSKADYEKHKVYACEVTHQGLSSPVTKSFNRGEC | 0.9
